Measurements taken from article PMC10516644.

Target: MSL2-FLAG (Drosophila) (UniProt P50534)
Experiment: co-IP

UniProt P50534, sequence (P50534 whole entry): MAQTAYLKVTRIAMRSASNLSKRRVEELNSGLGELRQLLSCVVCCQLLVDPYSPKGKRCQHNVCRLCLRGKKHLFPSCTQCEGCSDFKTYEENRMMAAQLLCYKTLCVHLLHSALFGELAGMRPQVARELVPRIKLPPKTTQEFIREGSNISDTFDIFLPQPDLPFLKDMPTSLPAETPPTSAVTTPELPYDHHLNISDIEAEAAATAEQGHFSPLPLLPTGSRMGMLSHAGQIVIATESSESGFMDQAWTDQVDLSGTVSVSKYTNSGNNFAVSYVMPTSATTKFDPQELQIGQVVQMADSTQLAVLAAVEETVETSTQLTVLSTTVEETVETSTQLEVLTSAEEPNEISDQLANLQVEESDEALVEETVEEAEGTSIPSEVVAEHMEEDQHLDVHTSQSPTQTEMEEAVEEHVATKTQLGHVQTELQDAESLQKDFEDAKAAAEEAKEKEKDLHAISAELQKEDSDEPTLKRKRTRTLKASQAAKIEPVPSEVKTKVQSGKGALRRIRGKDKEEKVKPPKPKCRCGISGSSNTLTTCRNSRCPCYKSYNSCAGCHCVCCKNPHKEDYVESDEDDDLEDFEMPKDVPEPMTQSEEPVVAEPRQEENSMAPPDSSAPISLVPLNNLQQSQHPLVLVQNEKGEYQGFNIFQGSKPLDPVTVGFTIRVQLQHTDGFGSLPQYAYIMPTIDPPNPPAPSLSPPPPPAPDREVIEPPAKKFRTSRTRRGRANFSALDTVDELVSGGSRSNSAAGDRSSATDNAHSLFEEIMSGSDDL

## CLAMP-ΔZF1-FLAG (from UniProt Q9V9N4 1-561) (natural protein)
  percent co-immunoprecipitated (bound fraction normalised to input): < 1%
